Source: PMC10713829 (Nature Communications, 2023)
Peptide text beside a SMILES is read from it.

Columns and labels:
HLA-A*01:01/hβ2m [1] = biological target: T1, HLA-A*01:01/hβ2m (Homo sapiens, UniProt P04439, /R68K/S129P/T187R/V100A/V91M/W191G); experiment: Fluorescence anisotropy competition with TAMRA-NRAS^Q61K; type: binding
T1 construct: BirA substrate peptide (biotinylation tag, […]), seen only in the HDX-MS peptide map (C); made in house
Method: TAMRA association with K61 was modeled to not disrupt interaction with the HLA-A*01:01 groove because K61 is solvent-exposed. […] NRAS peptides were prepared by chemical synthesis (GenScript, Piscataway, USA). […] Data was recorded on a SpectraMax iD5 plate reader with an excitation filter of λex = 531 nm and an emission filter of λem = 595 nm with an PMT gain set to high, an integration time of 1200 msec and read height 0.5 mm. Each experiment was performed in triplicate (n = 3) and is representative of at least two independent experiments. Experimental values were subtracted from background r values obtained from incubation of TAMRA-NRAS^Q61K alone. […] IC50 values were obtain by fitting to a simple single-site (one phase association) model with DynaFit (http://www.biokin.com/dynafit).

HLA-A*01:01/hβ2m [2] = biological target: T2, HLA-A*01:01/hβ2m (Homo sapiens, UniProt P04439, A114D/A174V/A182V/D101N/D185E/E176A/E190D/L180R/Q94H/R68K/S129P/T187R/V100A/V91M/W191G); experiment: Hydrogen-deuterium exchange mass spectrometry (HDX-MS) of empty and peptide-loaded complexes; details: for Average % deuterium uptake: 600s
T2 construct: BirA substrate peptide (biotinylation tag, […]), seen only in the HDX-MS peptide map (C); made in house

[3] = fragment ASGSHSMRY 2-10, charge 2
[4] = fragment ASGSHSMRY 2-10, charge 3
[5] = fragment ASGSHSMRYF 2-11, charge 2

Compound	% deuterium uptake of peptide fragments corresponding to the NRAS peptide (HLA-A*01:01/hβ2m [2]; HDX-MS of peptide/HLA-A*01:01/hβ2m, back-exchange corrected, pD 6.5, 25 °C, up to 600 s, biological triplicates)	Average % deuterium uptake (HLA-A*01:01/hβ2m [2]; fragment ASGSHSMRY 2-10, charge 1)	Average % deuterium uptake (HLA-A*01:01/hβ2m [2]; [3])	Average % deuterium uptake (HLA-A*01:01/hβ2m [2]; [4])	Average % deuterium uptake (HLA-A*01:01/hβ2m [2]; [5])	deuterium uptake of the HLA-A*01:01 α2-1 helix (residues 139–155) in the peptide-loaded complex (HLA-A*01:01/hβ2m [2]; HDX-MS, back-exchange corrected, pD 6.5, 25 °C, comparison among peptide-loaded samples)	IC50 (HLA-A*01:01/hβ2m [1])
CC[C@H](C)[C@H](N)C(=O)N[C@@H](CC(C)C)C(=O)N[C@@H](CC(=O)O)C(=O)N[C@H](C(=O)N[C@@H](C)C(=O)NCC(=O)N[C@@H](CCCCN)C(=O)N[C@@H](CCC(=O)O)C(=O)N[C@@H](CCC(=O)O)C(=O)N[C@@H](Cc1ccc(O)cc1)C(=O)O)[C@@H](C)O [NRAS^Q61K]	–	–	–	–	–	–	260 nM
CC[C@H](C)[C@H](N)C(=O)N[C@@H](CC(C)C)C(=O)N[C@@H](CC(=O)O)C(=O)N[C@H](C(=O)N[C@@H](C)C(=O)NCC(=O)N[C@@H](CCC(N)=O)C(=O)N[C@@H](CCC(=O)O)C(=O)N[C@@H](CCC(=O)O)C(=O)N[C@@H](Cc1ccc(O)cc1)C(=O)O)[C@@H](C)O [Q61] (H-ILDTAGQEEY-OH)	–	–	–	–	–	–	278 ± 32 nM
NRAS^Q61H: NRAS55-64 neoepitope peptide with Q61H mutation (ILDTAGHEEY)	approx. 75%	85.9593%	85.2218%	85.2836%	76.8148%	–	–

More lines, main results first:

% deuterium uptake of peptide fragments corresponding to the NRAS peptide (HLA-A*01:01/hβ2m [2]; HDX-MS of peptide/HLA-A*01:01/hβ2m, back-exchange corrected, pD 6.5, 25 °C, up to 600 s, biological triplicates)	Average % deuterium uptake (HLA-A*01:01/hβ2m [2]; fragment ASGSHSMRY 2-10, charge 1)	Average % deuterium uptake (HLA-A*01:01/hβ2m [2]; [3])	Average % deuterium uptake (HLA-A*01:01/hβ2m [2]; [4])	Average % deuterium uptake (HLA-A*01:01/hβ2m [2]; [5])	deuterium uptake of the HLA-A*01:01 α2-1 helix (residues 139–155) in the peptide-loaded complex (HLA-A*01:01/hβ2m [2]; HDX-MS, back-exchange corrected, pD 6.5, 25 °C, comparison among peptide-loaded samples)	Compound	IC50 (HLA-A*01:01/hβ2m [1])
–	–	83.6219%	84.5527%	77.0018%	significantly reduced deuterium uptake	NRAS^Q61L: NRAS55-64 neoepitope peptide with Q61L mutation (ILDTAGLEEY)	–
–	–	83.2364%	83.3198%	78.2896%	–	NRAS^Q61R: NRAS55-64 neoepitope peptide with Q61R mutation (ILDTAGREEY)	–
